Data as given in patent US20210069341A1 (published 2021).

T1: human FcγRI (human, UniProt P12314 16-288)
T1 chain: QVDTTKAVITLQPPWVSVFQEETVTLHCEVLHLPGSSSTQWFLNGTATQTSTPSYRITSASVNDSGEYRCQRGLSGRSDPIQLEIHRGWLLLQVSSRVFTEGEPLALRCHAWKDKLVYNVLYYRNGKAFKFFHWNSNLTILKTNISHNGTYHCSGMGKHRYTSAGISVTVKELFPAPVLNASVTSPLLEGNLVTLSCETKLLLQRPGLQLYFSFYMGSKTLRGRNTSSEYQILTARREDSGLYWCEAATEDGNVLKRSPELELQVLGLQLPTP

T2: human FcγRIIa (human, UniProt P12318 36-218)
T2 chain: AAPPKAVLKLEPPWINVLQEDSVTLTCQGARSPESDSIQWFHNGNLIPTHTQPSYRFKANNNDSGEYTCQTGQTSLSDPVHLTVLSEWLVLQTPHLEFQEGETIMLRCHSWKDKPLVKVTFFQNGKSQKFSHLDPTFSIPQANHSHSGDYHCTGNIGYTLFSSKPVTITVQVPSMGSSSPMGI

T3: human FcγRIIb (human, UniProt P31994 46-217)
T3 chain: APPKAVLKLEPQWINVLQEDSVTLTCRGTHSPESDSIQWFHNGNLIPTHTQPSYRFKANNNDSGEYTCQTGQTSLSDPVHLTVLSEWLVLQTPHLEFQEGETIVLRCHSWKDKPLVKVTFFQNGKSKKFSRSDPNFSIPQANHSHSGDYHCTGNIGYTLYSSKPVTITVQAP

B1: antibody with the L234F/S239A/S442C triple mutation (Fc receptor affinity analysis) (antibody)
Fc: APEFLGGPAVFLFPPKPKDTLMISRTPEVTCVVVDVSHEDPEVKFNWYVDGVEVHNAKTKPREEQYNSTYRVVSVLTVLHQDWLNGKEYKCKVSNKALPAPIEKTISKAKGQPREPQVYTLPPSRDELTKNQVSLTCLVKGFYPSDIAVEWESNGQPENNYKTTPPVLDSDGSFFLYSKLTVDKSRWQQGNVFSCSVMHEALHNHYTQKSLCLSPGK
B2: antibody with the C239ins cysteine engineered Fc region (Fc receptor affinity analysis) (antibody)
Fc: APELLGGPSCVFLFPPKPKDTLMISRTPEVTCVVVDVSHEDPEVKFNWYVDGVEVHNAKTKPREEQYNSTYRVVSVLTVLHQDWLNGKEYKCKVSNKALPAPIEKTISKAKGQPREPQVYTLPPSRDELTKNQVSLTCLVKGFYPSDIAVEWESNGQPENNYKTTPPVLDSDGSFFLYSKLTVDKSRWQQGNVFSCSVMHEALHNHYTQKSLSLSPGK

Tests used:
human FcγRI = biological target: T1, human FcγRI; test: binding affinity
[1] = biological target: human FcγRIIIa, 158F allele (human, UniProt P08637 17-208); test: binding affinity
Sequence of human FcγRIIIa, 158F allele (P08637 17-208): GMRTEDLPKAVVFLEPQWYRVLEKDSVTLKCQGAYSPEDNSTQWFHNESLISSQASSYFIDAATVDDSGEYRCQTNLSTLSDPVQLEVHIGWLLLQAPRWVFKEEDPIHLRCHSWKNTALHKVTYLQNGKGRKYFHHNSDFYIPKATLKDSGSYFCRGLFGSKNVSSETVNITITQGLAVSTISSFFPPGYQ

[2] = biological target: human FcγRIIIa, 158V allele (human, UniProt P08637 17-208); test: binding affinity
Sequence of human FcγRIIIa, 158V allele (P08637 17-208 F176V): as the sequence (P08637 17-208) above, with F160V counted along it

human FcγRIIa = biological target: T2, human FcγRIIa; test: binding affinity
human FcγRIIb = biological target: T3, human FcγRIIb; test: binding affinity
human FcRn protein = human FcRn protein (human, UniProt P55899 24-297; P61769 21-119); test: binding affinity; pH 6
Sequence of human FcRn protein (P55899 24-297, chain 1 of 2): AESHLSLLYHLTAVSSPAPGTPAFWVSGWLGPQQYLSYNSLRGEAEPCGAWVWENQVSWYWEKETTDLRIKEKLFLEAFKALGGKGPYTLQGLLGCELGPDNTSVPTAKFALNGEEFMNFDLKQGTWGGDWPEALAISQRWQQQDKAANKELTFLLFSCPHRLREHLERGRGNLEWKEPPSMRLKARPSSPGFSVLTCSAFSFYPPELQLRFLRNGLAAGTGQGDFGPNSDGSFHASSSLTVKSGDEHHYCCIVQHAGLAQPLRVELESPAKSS
Sequence of human FcRn protein (P61769 21-119, chain 2 of 2): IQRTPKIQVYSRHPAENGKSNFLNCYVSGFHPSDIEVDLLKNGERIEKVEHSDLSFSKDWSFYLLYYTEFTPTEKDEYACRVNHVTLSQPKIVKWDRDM

Row | Binder | Kd (human FcγRI) [nM] | Kd [1] [nM] | Kd [2] [nM] | Kd (human FcγRIIa) [nM] | Kd (human FcγRIIb) [nM] | Kd (human FcRn protein) [nM]
1 | B1 | ~16 | 5700 | 1460 | 2540 | 6310 | 976
2 | B2 | ~133 | – | – | – | – | 1050
